Results: patent publication US20210032299A1 (Eli Lilly, published 2021)
Starred links: 1 amine or outer side, 2 acyl side, 3 side chain; linkers in the order of their positions; H or OH if unused. Non-standard residues stand in square brackets, D forms with d. Groups on a side chain read outwards from the residue. No end group written: not given here. *: point of attachment. C20 diacid = O=C(O)CCCCCCCCCCCCCCCCCCC(=O)*; γGlu = O=C(O)[C@H](CCC(=O)[*:2])N[*:1]; αMeF = C[C@](N)(Cc1ccccc1)C(=O)O; 4Pal = N[C@@H](Cc1ccncc1)C(=O)O; αMeL = CC(C)C[C@](C)(N)C(=O)O; AEEA = NCCOCCOCC(=O)O; Aib = CC(C)(N)C(=O)O

Assays:
Assay in all cases: cell-based or functional assay
[1] = target: human glucagon receptor (human, UniProt P47871 26-477)
[2] = target: T1, human glucose-dependent insulinotropic peptide receptor (human, UniProt P48546 22-466)
T1 sequence (looked up): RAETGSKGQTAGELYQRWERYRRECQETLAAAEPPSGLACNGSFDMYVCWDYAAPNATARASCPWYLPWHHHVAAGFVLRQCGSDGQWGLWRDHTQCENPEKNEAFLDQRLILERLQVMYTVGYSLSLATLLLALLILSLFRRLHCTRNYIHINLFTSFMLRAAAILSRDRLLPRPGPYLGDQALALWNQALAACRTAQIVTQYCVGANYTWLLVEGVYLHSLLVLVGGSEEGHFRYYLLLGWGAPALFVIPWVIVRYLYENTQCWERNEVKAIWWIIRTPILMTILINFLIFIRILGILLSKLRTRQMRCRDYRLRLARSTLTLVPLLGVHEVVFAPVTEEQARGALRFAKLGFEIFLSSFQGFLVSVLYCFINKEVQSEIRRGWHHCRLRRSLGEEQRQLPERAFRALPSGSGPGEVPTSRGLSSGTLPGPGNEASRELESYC

[3] = target: human GLP-1 receptor (human, UniProt P43220 24-463)

human glucagon receptor, sequence (P47871 26-477): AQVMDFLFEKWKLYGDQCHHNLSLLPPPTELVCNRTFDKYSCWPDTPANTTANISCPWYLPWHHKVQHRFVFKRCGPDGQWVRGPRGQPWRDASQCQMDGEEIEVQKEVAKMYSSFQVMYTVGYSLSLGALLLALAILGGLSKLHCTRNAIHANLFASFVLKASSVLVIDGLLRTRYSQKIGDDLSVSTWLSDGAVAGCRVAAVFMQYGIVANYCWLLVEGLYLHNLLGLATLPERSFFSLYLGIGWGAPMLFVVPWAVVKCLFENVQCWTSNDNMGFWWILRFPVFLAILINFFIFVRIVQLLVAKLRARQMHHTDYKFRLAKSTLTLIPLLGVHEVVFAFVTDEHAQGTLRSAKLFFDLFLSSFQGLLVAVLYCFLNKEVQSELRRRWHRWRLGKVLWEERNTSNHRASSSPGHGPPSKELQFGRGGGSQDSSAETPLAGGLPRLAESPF

| Binder | hGcgR cAMP Rel EC50 [1] [nM] | hGIPR cAMP Rel EC50 [2] [nM] | hGLP1R cAMP Rel EC50 [3] [nM] |
| --- | --- | --- | --- |
| YXEGTXISDYSIXLDKKHQXDFVEXLLAGGPSSGAPPPS (Aib2; Iva6; αMeL13; K17((2-[2-(2-Amino-ethoxy)-ethoxy]-acetyl)2-(γ-Glu)-CO-(CH2)18-CO2H); Aib20; 4-Pal25; C-terminal amide) [Example 55] | > 5000 | 0.017 | > 5000 |
| Y[Aib]EGTFISDYSI[αMeL]LDKK([AEEA-AEEA-γGlu-C20 diacid])HQ[Aib]D[αMeF]VE[4Pal]LLAGGPSSGAPPPS-NH2 (N-terminus assumed; SMILES CC[C@H](C)[C@H](NC(=O)[C@H](Cc1ccccc1)NC(=O)[C@@H](NC(=O)CNC(=O)[C@H](CCC(=O)O)NC(=O)C(C)(C)NC(=O)[C@@H](N)Cc1ccc(O)cc1)[C@@H](C)O)C(=O)N[C@@H](CO)C(=O)N[C@@H](CC(=O)O)C(=O)N[C@@H](Cc1ccc(O)cc1)C(=O)N[C@@H](CO)C(=O)N[C@H](C(=O)N[C@@](C)(CC(C)C)C(=O)N[C@@H](CC(C)C)C(=O)N[C@@H](CC(=O)O)C(=O)N[C@@H](CCCCN)C(=O)N[C@@H](CCCCNC(=O)COCCOCCNC(=O)COCCOCCNC(=O)CC[C@H](NC(=O)CCCCCCCCCCCCCCCCCCC(=O)O)C(=O)O)C(=O)N[C@@H](Cc1c[nH]cn1)C(=O)N[C@@H](CCC(N)=O)C(=O)NC(C)(C)C(=O)N[C@@H](CC(=O)O)C(=O)N[C@@](C)(Cc1ccccc1)C(=O)N[C@H](C(=O)N[C@@H](CCC(=O)O)C(=O)N[C@@H](Cc1ccncc1)C(=O)N[C@@H](CC(C)C)C(=O)N[C@@H](CC(C)C)C(=O)N[C@@H](C)C(=O)NCC(=O)NCC(=O)N1CCC[C@H]1C(=O)N[C@@H](CO)C(=O)N[C@@H](CO)C(=O)NCC(=O)N[C@@H](C)C(=O)N1CCC[C@H]1C(=O)N1CCC[C@H]1C(=O)N1CCC[C@H]1C(=O)N[C@@H](CO)C(N)=O)C(C)C)[C@@H](C)CC) [Example 56] | > 5000 | 0.0169 | > 5000 |
| Y[Aib]EGTFISDYSI[αMeL]LDKK([AEEA-AEEA-γGlu-C20 diacid])HQ[Aib]DFVEWLLAGGPSSGAPPPS-NH2 (N-terminus assumed; SMILES CC[C@H](C)[C@H](NC(=O)[C@H](Cc1ccccc1)NC(=O)[C@@H](NC(=O)CNC(=O)[C@H](CCC(=O)O)NC(=O)C(C)(C)NC(=O)[C@@H](N)Cc1ccc(O)cc1)[C@@H](C)O)C(=O)N[C@@H](CO)C(=O)N[C@@H](CC(=O)O)C(=O)N[C@@H](Cc1ccc(O)cc1)C(=O)N[C@@H](CO)C(=O)N[C@H](C(=O)N[C@@](C)(CC(C)C)C(=O)N[C@@H](CC(C)C)C(=O)N[C@@H](CC(=O)O)C(=O)N[C@@H](CCCCN)C(=O)N[C@@H](CCCCNC(=O)COCCOCCNC(=O)COCCOCCNC(=O)CC[C@H](NC(=O)CCCCCCCCCCCCCCCCCCC(=O)O)C(=O)O)C(=O)N[C@@H](Cc1c[nH]cn1)C(=O)N[C@@H](CCC(N)=O)C(=O)NC(C)(C)C(=O)N[C@@H](CC(=O)O)C(=O)N[C@@H](Cc1ccccc1)C(=O)N[C@H](C(=O)N[C@@H](CCC(=O)O)C(=O)N[C@@H](Cc1c[nH]c2ccccc12)C(=O)N[C@@H](CC(C)C)C(=O)N[C@@H](CC(C)C)C(=O)N[C@@H](C)C(=O)NCC(=O)NCC(=O)N1CCC[C@H]1C(=O)N[C@@H](CO)C(=O)N[C@@H](CO)C(=O)NCC(=O)N[C@@H](C)C(=O)N1CCC[C@H]1C(=O)N1CCC[C@H]1C(=O)N1CCC[C@H]1C(=O)N[C@@H](CO)C(N)=O)C(C)C)[C@@H](C)CC) [Example 54] | > 5000 | 0.054 | > 5000 |
| Y[Aib]EGTFISDYSI[αMeL]LDKK([AEEA-AEEA-γGlu-C20 diacid])HQ[Aib]EFVE[4Pal]LLAQGPSSGAPPPS-NH2 (N-terminus assumed; SMILES CC[C@H](C)[C@H](NC(=O)[C@H](Cc1ccccc1)NC(=O)[C@@H](NC(=O)CNC(=O)[C@H](CCC(=O)O)NC(=O)C(C)(C)NC(=O)[C@@H](N)Cc1ccc(O)cc1)[C@@H](C)O)C(=O)N[C@@H](CO)C(=O)N[C@@H](CC(=O)O)C(=O)N[C@@H](Cc1ccc(O)cc1)C(=O)N[C@@H](CO)C(=O)N[C@H](C(=O)N[C@@](C)(CC(C)C)C(=O)N[C@@H](CC(C)C)C(=O)N[C@@H](CC(=O)O)C(=O)N[C@@H](CCCCN)C(=O)N[C@@H](CCCCNC(=O)COCCOCCNC(=O)COCCOCCNC(=O)CC[C@H](NC(=O)CCCCCCCCCCCCCCCCCCC(=O)O)C(=O)O)C(=O)N[C@@H](Cc1c[nH]cn1)C(=O)N[C@@H](CCC(N)=O)C(=O)NC(C)(C)C(=O)N[C@@H](CCC(=O)O)C(=O)N[C@@H](Cc1ccccc1)C(=O)N[C@H](C(=O)N[C@@H](CCC(=O)O)C(=O)N[C@@H](Cc1ccncc1)C(=O)N[C@@H](CC(C)C)C(=O)N[C@@H](CC(C)C)C(=O)N[C@@H](C)C(=O)N[C@@H](CCC(N)=O)C(=O)NCC(=O)N1CCC[C@H]1C(=O)N[C@@H](CO)C(=O)N[C@@H](CO)C(=O)NCC(=O)N[C@@H](C)C(=O)N1CCC[C@H]1C(=O)N1CCC[C@H]1C(=O)N1CCC[C@H]1C(=O)N[C@@H](CO)C(N)=O)C(C)C)[C@@H](C)CC) [Example 57] | 886 | 0.0177 | > 5000 |
| Y[Aib]EGTFISDYSI[αMeL]LDKK([AEEA-AEEA-γGlu-C20 diacid])HQ[Aib]EFVE[4Pal]LLATGPSSGAPPPS-NH2 (N-terminus assumed; SMILES CC[C@H](C)[C@H](NC(=O)[C@H](Cc1ccccc1)NC(=O)[C@@H](NC(=O)CNC(=O)[C@H](CCC(=O)O)NC(=O)C(C)(C)NC(=O)[C@@H](N)Cc1ccc(O)cc1)[C@@H](C)O)C(=O)N[C@@H](CO)C(=O)N[C@@H](CC(=O)O)C(=O)N[C@@H](Cc1ccc(O)cc1)C(=O)N[C@@H](CO)C(=O)N[C@H](C(=O)N[C@@](C)(CC(C)C)C(=O)N[C@@H](CC(C)C)C(=O)N[C@@H](CC(=O)O)C(=O)N[C@@H](CCCCN)C(=O)N[C@@H](CCCCNC(=O)COCCOCCNC(=O)COCCOCCNC(=O)CC[C@H](NC(=O)CCCCCCCCCCCCCCCCCCC(=O)O)C(=O)O)C(=O)N[C@@H](Cc1c[nH]cn1)C(=O)N[C@@H](CCC(N)=O)C(=O)NC(C)(C)C(=O)N[C@@H](CCC(=O)O)C(=O)N[C@@H](Cc1ccccc1)C(=O)N[C@H](C(=O)N[C@@H](CCC(=O)O)C(=O)N[C@@H](Cc1ccncc1)C(=O)N[C@@H](CC(C)C)C(=O)N[C@@H](CC(C)C)C(=O)N[C@@H](C)C(=O)N[C@H](C(=O)NCC(=O)N1CCC[C@H]1C(=O)N[C@@H](CO)C(=O)N[C@@H](CO)C(=O)NCC(=O)N[C@@H](C)C(=O)N1CCC[C@H]1C(=O)N1CCC[C@H]1C(=O)N1CCC[C@H]1C(=O)N[C@@H](CO)C(N)=O)[C@@H](C)O)C(C)C)[C@@H](C)CC) [Example 58] | > 5000 | 0.0183 | > 5000 |
